Consider 16 proteins from article PMC13189624, “MORC2 mediates transcriptional regulation through liquid-liquid phase separation” (eLife, 2026).

Data set [1] concerns the molecule itself. In words: crystal structure; SeMet CC3 (901-1003); sitting drop, 0.1 M citric acid pH 3.5, 25% w/v PEG 3350, 16 °C; 3.1 Å.
Data set [2] deals with the molecule itself. In words: SEC-MALS; size-exclusion chromatography with static light scattering (miniDawn); fragments at 70 μM; Superdex 200 increase or Superose 6 increase; 50 mM Tris-HCl pH 8.0, 150 mM NaCl, 1 mM EDTA, 1 mM DTT. Background: In gel filtration, larger molecules generally elute earlier.
Data set [3] concerns the molecule itself. In words: SEC-MALS; size-exclusion chromatography with static light scattering (miniDawn); MORC2FL at 70 μM; 50 mM Tris-HCl pH 8.0, 1000 mM NaCl, 1 mM EDTA, 1 mM DTT; no ATP; also run with 601 DNA.

B1: selenomethionine MORC2 CC3 domain (residues 901-1003), as crystallised (domain or fragment, human, UniProt Q9Y6X9 901-1003, looked up)
chain: LSTNHETIDLLVQILRNCLRYFLPPSFPISKKQLSAMNSDELISFPLKEYFKQYEVGLQNLCNSYQSRADSRAKASEESLRTSERKLRETEEKLQKLRTNIVA
modifications: selenomethionine (SeMet) in place of methionine
notes: MORC2, human, UniProt Q9Y6X9, residues 901-1003; The methods say 'MORC2 CC3 fused with a GPGS linker'; also called CC3 dimer; source: E. coli B834 in M9 medium with selenomethionine, purified (SEC, Superdex 75)
Regarding B1, the binding result in data set [1] was “binds”.

B2: MORC2 CC3 domain (residues 901-1003) (domain or fragment, human, UniProt Q9Y6X9 901-1003, looked up)
chain: LSTNHETIDLLVQILRNCLRYFLPPSFPISKKQLSAMNSDELISFPLKEYFKQYEVGLQNLCNSYQSRADSRAKASEESLRTSERKLRETEEKLQKLRTNIVA
notes: MORC2, human, UniProt Q9Y6X9, residues 901-1003; Cloned in a modified pET32m vector (Trx-tag); Used unlabelled for SEC-SLS and uniformly 15N-labelled for the NMR titration; The methods say fragments carry a GPGS linker; also called MORC2^901-1003; coiled-coil 3; source: E. coli, purified (Ni-NTA, SEC); 15N-labelled from M9 medium for NMR
Turning to B2, the “stoichiometry N” value in data set [2] was found to be 2.

B3: Trx-tagged MORC2 901-1032 Y921A (domain or fragment, human, UniProt Q9Y6X9 901-1032, looked up)
chain: LSTNHETIDLLVQILRNCLRAFLPPSFPISKKQLSAMNSDELISFPLKEYFKQYEVGLQNLCNSYQSRADSRAKASEESLRTSERKLRETEEKLQKLRTNIVALLQKVQEDIDINTDDELDAYIEDLITKGD
notes: MORC2, human, UniProt Q9Y6X9, residues 901-1032 with Y921A; the same legend also prints residue 921 as F921; source: E. coli, purified
Turning to B3, the binding result in data set [2] was “binds”.

B4: wild-type MORC2 901-1032 with Trx-tag (domain or fragment, human, UniProt Q9Y6X9 901-1032, looked up)
chain: LSTNHETIDLLVQILRNCLRYFLPPSFPISKKQLSAMNSDELISFPLKEYFKQYEVGLQNLCNSYQSRADSRAKASEESLRTSERKLRETEEKLQKLRTNIVALLQKVQEDIDINTDDELDAYIEDLITKGD
notes: MORC2, human, UniProt Q9Y6X9, residues 901-1032; Cloned in a modified pET32m vector with Trx-tag (14 kDa); also called WT MORC2^901-1032 (with Trx-tag); WT CC3-IBD; source: E. coli, purified (Ni-NTA, SEC)
For B4, in data set [2], the “stoichiometry N” value worked out at 2.

B5: Trx-tagged MORC2 901-1032 L915Q (domain or fragment, human, UniProt Q9Y6X9 901-1032, looked up)
chain: LSTNHETIDLLVQIQRNCLRYFLPPSFPISKKQLSAMNSDELISFPLKEYFKQYEVGLQNLCNSYQSRADSRAKASEESLRTSERKLRETEEKLQKLRTNIVALLQKVQEDIDINTDDELDAYIEDLITKGD
notes: MORC2, human, UniProt Q9Y6X9, residues 901-1032 with L915Q; source: E. coli, purified
Turning to B5, the binding result in data set [2] is reported as “binds”.

B6: Trx-tagged MORC2 901-1032 F922Q (domain or fragment, human, UniProt Q9Y6X9 901-1032, looked up)
chain: LSTNHETIDLLVQILRNCLRYQLPPSFPISKKQLSAMNSDELISFPLKEYFKQYEVGLQNLCNSYQSRADSRAKASEESLRTSERKLRETEEKLQKLRTNIVALLQKVQEDIDINTDDELDAYIEDLITKGD
notes: MORC2, human, UniProt Q9Y6X9, residues 901-1032 with F922Q; source: E. coli, purified
As for B6, in data set [2], the binding result is listed as “binds”.

B7: Trx-tagged MORC2 901-1032 L958Q (domain or fragment, human, UniProt Q9Y6X9 901-1032, looked up)
chain: LSTNHETIDLLVQILRNCLRYFLPPSFPISKKQLSAMNSDELISFPLKEYFKQYEVGQQNLCNSYQSRADSRAKASEESLRTSERKLRETEEKLQKLRTNIVALLQKVQEDIDINTDDELDAYIEDLITKGD
notes: MORC2, human, UniProt Q9Y6X9, residues 901-1032 with L958Q; source: E. coli, purified
Consider B7, for which the binding result in data set [2] was “binds”.

B8: Trx-tagged MORC2 901-1032 L911Q (domain or fragment, human, UniProt Q9Y6X9 901-1032, looked up)
chain: LSTNHETIDLQVQILRNCLRYFLPPSFPISKKQLSAMNSDELISFPLKEYFKQYEVGLQNLCNSYQSRADSRAKASEESLRTSERKLRETEEKLQKLRTNIVALLQKVQEDIDINTDDELDAYIEDLITKGD
notes: MORC2, human, UniProt Q9Y6X9, residues 901-1032 with L911Q; source: E. coli, purified
Consider B8, for which the binding result in data set [2] is “binds”.

B9: Trx-tagged MORC2 901-1032 F951Q (domain or fragment, human, UniProt Q9Y6X9 901-1032, looked up)
chain: LSTNHETIDLLVQILRNCLRYFLPPSFPISKKQLSAMNSDELISFPLKEYQKQYEVGLQNLCNSYQSRADSRAKASEESLRTSERKLRETEEKLQKLRTNIVALLQKVQEDIDINTDDELDAYIEDLITKGD
notes: MORC2, human, UniProt Q9Y6X9, residues 901-1032 with F951Q; source: E. coli, purified
For B9, in data set [2], the binding result is “binds”.

B10: Trx-tagged MORC2 901-1032 I908Q (domain or fragment, human, UniProt Q9Y6X9 901-1032, looked up)
chain: LSTNHETQDLLVQILRNCLRYFLPPSFPISKKQLSAMNSDELISFPLKEYFKQYEVGLQNLCNSYQSRADSRAKASEESLRTSERKLRETEEKLQKLRTNIVALLQKVQEDIDINTDDELDAYIEDLITKGD
notes: MORC2, human, UniProt Q9Y6X9, residues 901-1032 with I908Q; source: E. coli, purified
On to B10, for which the binding result in data set [2] is given as “binds”.

B11: Trx-tagged MORC2 901-1032 Y954A (domain or fragment, human, UniProt Q9Y6X9 901-1032, looked up)
chain: LSTNHETIDLLVQILRNCLRYFLPPSFPISKKQLSAMNSDELISFPLKEYFKQAEVGLQNLCNSYQSRADSRAKASEESLRTSERKLRETEEKLQKLRTNIVALLQKVQEDIDINTDDELDAYIEDLITKGD
notes: MORC2, human, UniProt Q9Y6X9, residues 901-1032 with Y954A; source: E. coli, purified
As for B11, the binding result in data set [2] was “binds”.

B12: MORC2 CC3-IBD (residues 901-1032) (domain or fragment, human, UniProt Q9Y6X9 901-1032, looked up)
chain: LSTNHETIDLLVQILRNCLRYFLPPSFPISKKQLSAMNSDELISFPLKEYFKQYEVGLQNLCNSYQSRADSRAKASEESLRTSERKLRETEEKLQKLRTNIVALLQKVQEDIDINTDDELDAYIEDLITKGD
notes: MORC2, human, UniProt Q9Y6X9, residues 901-1032; The legend names no Trx tag on it, and it may be the same as the Trx-tagged m4; The methods say fragments carry a GPGS linker; Construct details are in Supplementary file 2; also called MORC2^901-1032
With B12, the “stoichiometry N” value in data set [2] is 2.

B13: MORC2 fragment 744-1032 (domain or fragment, human, UniProt Q9Y6X9 744-1032, looked up)
chain: DEEEVEEEAERRKERCKRGRFVVKEEKKDSNELSDSAGEEDSADLKRAQKDKGLHVEVRVNREWYTGRVTAVEVGKHVVRWKVKFDYVPTDTTPRDRWVEKGSEDVRLMKPPSPEHQSLDTQQEGGEEEVGPVAQQAIAVAEPSTSECLRIEPDTTALSTNHETIDLLVQILRNCLRYFLPPSFPISKKQLSAMNSDELISFPLKEYFKQYEVGLQNLCNSYQSRADSRAKASEESLRTSERKLRETEEKLQKLRTNIVALLQKVQEDIDINTDDELDAYIEDLITKGD
notes: MORC2, human, UniProt Q9Y6X9, residues 744-1032; The expression system and tags are in Supplementary file 2
Turning to B13, in data set [2], the “stoichiometry N” value worked out at 2.

B14: full-length human MORC2 (MORC2FL, residues 1-1032) (natural protein, UniProt Q9Y6X9 1-1032, looked up)
chain: MAFTNYSSLNRAQLTFEYLHTNSTTHEFLFGALAELVDNARDADATRIDIYAERREDLRGGFMLCFLDDGAGMDPSDAASVIQFGKSAKRTPESTQIGQYGNGLKSGSMRIGKDFILFTKKEDTMTCLFLSRTFHEEEGIDEVIVPLPTWNARTREPVTDNVEKFAIETELIYKYSPFRTEEEVMTQFMKIPGDSGTLVIIFNLKLMDNGEPELDIISNPRDIQMAETSPEGTKPERRSFRAYAAVLYIDPRMRIFIHGHKVQTKRLSCCLYKPRMYKYTSSRFKTRAEQEVKKAEHVARIAEEKAREAESKARTLEVRLGGDLTRDSRVMLRQVQNRAITLRREADVKKRIKEAKQRALKEPKELNFVFGVNIEHRDLDGMFIYNCSRLIKMYEKVGPQLEGGMACGGVVGVVDVPYLVLEPTHNKQDFADAKEYRHLLRAMGEHLAQYWKDIAIAQRGIIKFWDEFGYLSANWNQPPSSELRYKRRRAMEIPTTIQCDLCLKWRTLPFQLSSVEKDYPDTWVCSMNPDPEQDRCEASEQKQKVPLGTFRKDMKTQEEKQKQLTEKIRQQQEKLEALQKTTPIRSQADLKKLPLEVTTRPSTEEPVRRPQRPRSPPLPAVIRNAPSRPPSLPTPRPASQPRKAPVISSTPKLPALAAREEASTSRLLQPPEAPRKPANTLVKTASRPAPLVQQLSPSLLPNSKSPREVPSPKVIKTPVVKKTESPIKLSPATPSRKRSVAVSDEEEVEEEAERRKERCKRGRFVVKEEKKDSNELSDSAGEEDSADLKRAQKDKGLHVEVRVNREWYTGRVTAVEVGKHVVRWKVKFDYVPTDTTPRDRWVEKGSEDVRLMKPPSPEHQSLDTQQEGGEEEVGPVAQQAIAVAEPSTSECLRIEPDTTALSTNHETIDLLVQILRNCLRYFLPPSFPISKKQLSAMNSDELISFPLKEYFKQYEVGLQNLCNSYQSRADSRAKASEESLRTSERKLRETEEKLQKLRTNIVALLQKVQEDIDINTDDELDAYIEDLITKGD
notes: MORC2, human, UniProt Q9Y6X9, residues 1-1032; cDNA amplified from a HeLa cDNA library; The plasmid is called MORC2-6xHis; Construct details are in Supplementary file 2; source: HEK293F, transiently transfected, purified (Ni-NTA, Superose 6 gel filtration), nucleic acid-free
With B14, in data set [3], the “stoichiometry N” value was found to be 2.

B15: MORC2 CTDΔCW (residues 537-1032) (domain or fragment, human, UniProt Q9Y6X9 537-1032, looked up)
chain: EASEQKQKVPLGTFRKDMKTQEEKQKQLTEKIRQQQEKLEALQKTTPIRSQADLKKLPLEVTTRPSTEEPVRRPQRPRSPPLPAVIRNAPSRPPSLPTPRPASQPRKAPVISSTPKLPALAAREEASTSRLLQPPEAPRKPANTLVKTASRPAPLVQQLSPSLLPNSKSPREVPSPKVIKTPVVKKTESPIKLSPATPSRKRSVAVSDEEEVEEEAERRKERCKRGRFVVKEEKKDSNELSDSAGEEDSADLKRAQKDKGLHVEVRVNREWYTGRVTAVEVGKHVVRWKVKFDYVPTDTTPRDRWVEKGSEDVRLMKPPSPEHQSLDTQQEGGEEEVGPVAQQAIAVAEPSTSECLRIEPDTTALSTNHETIDLLVQILRNCLRYFLPPSFPISKKQLSAMNSDELISFPLKEYFKQYEVGLQNLCNSYQSRADSRAKASEESLRTSERKLRETEEKLQKLRTNIVALLQKVQEDIDINTDDELDAYIEDLITKGD
notes: MORC2, human, UniProt Q9Y6X9, residues 537-1032; Bacterial constructs were made with MBP or Trx fusion proteins; Which one was used here, and whether it was kept, is in Supplementary file 2; source: Escherichia coli, purified
Take B15: the “stoichiometry N” value in data set [2] came out at 2.

B16: Trx-901-975 (CC3 truncation) (domain or fragment, human, UniProt Q9Y6X9 901-975, looked up)
chain: LSTNHETIDLLVQILRNCLRYFLPPSFPISKKQLSAMNSDELISFPLKEYFKQYEVGLQNLCNSYQSRADSRAKA
notes: MORC2, human, UniProt Q9Y6X9, residues 901-975; The Trx tag points to the bacterial pET32m-type vector; Construct details are in Supplementary file 2; also called truncated CC3 constructs (residues 901-975); CC3 N-terminal region
For B16, the “stoichiometry N” value in data set [2] worked out at 2.

The stoichiometry N is a count of units in the complex or per binding partner.
